Source: patent US20250296959A1, “B7-H3 TARGETING PEPTIDES AND CONSTRUCTS THEREOF” (Mariana Oncology Inc., priority 2024, published 2025)
Starred links: 1 amine or outer side, 2 acyl side, 3 side chain; linkers in the order of their positions; H or OH if unused. Positions of bridges follow the written chain, without caps; N, C: chain ends. Non-standard residues stand in square brackets, D forms with d. Groups on a side chain read outwards from the residue. Primed or numbered codes have the meaning given here. *: point of attachment. Ala(piperidin-4-yl) = O=C([C@H](CC1CCN([*:3])CC1)N[*:1])[*:2]; (2S,3S)βMePhe = C[C@@H](c1ccccc1)[C@H](N[*:1])C(=O)[*:2]; DOTA = O=C(O)CN1CCN(CC(=O)O)CCN(CC(=O)*)CCN(CC(=O)O)CC1; Phe(4-NHCONH2) = NC(=O)Nc1ccc(C[C@H](N)C(=O)O)cc1; PipAla = piperidinyl-alanine residue (as named); Trp(5-F) = N[C@@H](Cc1c[nH]c2ccc(F)cc12)C(=O)O; hydroxyVal = hydroxy-valine residue (as named); PEG4′ = 4x 3-(2-aminoethoxy)propanoic acid; 1Nal = N[C@@H](Cc1cccc2ccccc12)C(=O)O; Ala(4-THP) = N[C@@H](CC1CCOCC1)C(=O)O; Val(3-OH) = CC(C)(O)[C@H](N)C(=O)O; Cha = N[C@@H](CC1CCCCC1)C(=O)O; Tle = CC(C)(C)[C@H](N)C(=O)O; hLeu = CC(C)CC[C@H](N)C(=O)O; Sar = CNCC(=O)O

B1: Cpd 73 (peptide)
peptide: Ac-[hLeu]YCVGKYDVYC[Trp(5-F)]FT[dK](DOTA)-NH2
modifications: disulfide 3-11
SMILES: CC(=O)N[C@@H](CCC(C)C)C(=O)N[C@@H](Cc1ccc(O)cc1)C(=O)N[C@H]1CSSC[C@@H](C(=O)N[C@@H](Cc2c[nH]c3ccc(F)cc23)C(=O)N[C@@H](Cc2ccccc2)C(=O)N[C@H](C(=O)N[C@H](CCCCNC(=O)CN2CCN(CC(=O)O)CCN(CC(=O)O)CCN(CC(=O)O)CC2)C(N)=O)[C@@H](C)O)NC(=O)[C@H](Cc2ccc(O)cc2)NC(=O)[C@H](C(C)C)NC(=O)[C@H](CC(=O)O)NC(=O)[C@H](Cc2ccc(O)cc2)NC(=O)[C@H](CCCCN)NC(=O)CNC(=O)[C@H](C(C)C)NC1=O
B2: Cpd 76 (peptide)
peptide: Ac-[hLeu]YC[Tle]GKYDVYC[Trp(5-F)]FT[dK](DOTA)-NH2
modifications: disulfide 3-11
SMILES: CC(=O)N[C@@H](CCC(C)C)C(=O)N[C@@H](Cc1ccc(O)cc1)C(=O)N[C@H]1CSSC[C@@H](C(=O)N[C@@H](Cc2c[nH]c3ccc(F)cc23)C(=O)N[C@@H](Cc2ccccc2)C(=O)N[C@H](C(=O)N[C@H](CCCCNC(=O)CN2CCN(CC(=O)O)CCN(CC(=O)O)CCN(CC(=O)O)CC2)C(N)=O)[C@@H](C)O)NC(=O)[C@H](Cc2ccc(O)cc2)NC(=O)[C@H](C(C)C)NC(=O)[C@H](CC(=O)O)NC(=O)[C@H](Cc2ccc(O)cc2)NC(=O)[C@H](CCCCN)NC(=O)CNC(=O)[C@H](C(C)(C)C)NC1=O
B3: Cpd 77 (peptide)
peptide: Ac-[hLeu]YCV[Sar]KYDVYC[Trp(5-F)]FT[dK](DOTA)-NH2
modifications: disulfide 3-11
SMILES: CC(=O)N[C@@H](CCC(C)C)C(=O)N[C@@H](Cc1ccc(O)cc1)C(=O)N[C@H]1CSSC[C@@H](C(=O)N[C@@H](Cc2c[nH]c3ccc(F)cc23)C(=O)N[C@@H](Cc2ccccc2)C(=O)N[C@H](C(=O)N[C@H](CCCCNC(=O)CN2CCN(CC(=O)O)CCN(CC(=O)O)CCN(CC(=O)O)CC2)C(N)=O)[C@@H](C)O)NC(=O)[C@H](Cc2ccc(O)cc2)NC(=O)[C@H](C(C)C)NC(=O)[C@H](CC(=O)O)NC(=O)[C@H](Cc2ccc(O)cc2)NC(=O)[C@H](CCCCN)NC(=O)CN(C)C(=O)[C@H](C(C)C)NC1=O
B4: Cpd 72 (peptide)
peptide: Ac-[hLeu]YC[Tle]GKYDVYCWFT[dK](DOTA)-NH2
modifications: disulfide 3-11
SMILES: CC(=O)N[C@@H](CCC(C)C)C(=O)N[C@@H](Cc1ccc(O)cc1)C(=O)N[C@H]1CSSC[C@@H](C(=O)N[C@@H](Cc2c[nH]c3ccccc23)C(=O)N[C@@H](Cc2ccccc2)C(=O)N[C@H](C(=O)N[C@H](CCCCNC(=O)CN2CCN(CC(=O)O)CCN(CC(=O)O)CCN(CC(=O)O)CC2)C(N)=O)[C@@H](C)O)NC(=O)[C@H](Cc2ccc(O)cc2)NC(=O)[C@H](C(C)C)NC(=O)[C@H](CC(=O)O)NC(=O)[C@H](Cc2ccc(O)cc2)NC(=O)[C@H](CCCCN)NC(=O)CNC(=O)[C@H](C(C)(C)C)NC1=O
B5: Cpd 158 (peptide)
peptide: Ac-[hLeu]YCVGKYDVYC[1Nal]FT[dK](DOTA)-NH2
modifications: disulfide 3-11
SMILES: CC(=O)N[C@@H](CCC(C)C)C(=O)N[C@@H](Cc1ccc(O)cc1)C(=O)N[C@H]1CSSC[C@@H](C(=O)N[C@@H](Cc2cccc3ccccc23)C(=O)N[C@@H](Cc2ccccc2)C(=O)N[C@H](C(=O)N[C@H](CCCCNC(=O)CN2CCN(CC(=O)O)CCN(CC(=O)O)CCN(CC(=O)O)CC2)C(N)=O)[C@@H](C)O)NC(=O)[C@H](Cc2ccc(O)cc2)NC(=O)[C@H](C(C)C)NC(=O)[C@H](CC(=O)O)NC(=O)[C@H](Cc2ccc(O)cc2)NC(=O)[C@H](CCCCN)NC(=O)CNC(=O)[C@H](C(C)C)NC1=O
B6: Cpd 433 (peptide)
peptide: Ac-[hLeu]YC[Tle]G[PipAla][Ala(4-THP)]DVYCX[(2S,3S)βMePhe][hydroxyVal][dK](DOTA)-OH
modifications: disulfide 3-11 (inferred); not fully specified (residue 12); printed as Ac-hLeu-Y-C-Tbg-G-PipAla-ThpA-D-V-Y-C-5FW-[(2S, 3S)beta-Me-Phe]-hydroxyVal-dLys(DOTA)-COOH, disulfide
B7: Cpd 427 (peptide)
peptide: Ac-[hLeu]YC[Tle]G[PipAla][Ala(4-THP)]DV[Phe(4-NHCONH2)]CXF[hydroxyVal][dK](DOTA)-OH
modifications: disulfide 3-11 (inferred); not fully specified (residue 12); printed as Ac-hLeu-Y-C-Tbg-G-PipAla-ThpA-D-V-Aph(Cbm)-C-5FW-F-hydroxyVal-dLys(DOTA)-COOH, disulfide

The binders below were run against T1, B7-H3 on Calu-6 cells (human, UniProt Q5ZPR3 29-534) (assay: 177Lu-labelled peptide on Calu-6 cells, % cell associated fraction; C = >50%).
T1 construct: whole, on cells
T1 sequence (looked up): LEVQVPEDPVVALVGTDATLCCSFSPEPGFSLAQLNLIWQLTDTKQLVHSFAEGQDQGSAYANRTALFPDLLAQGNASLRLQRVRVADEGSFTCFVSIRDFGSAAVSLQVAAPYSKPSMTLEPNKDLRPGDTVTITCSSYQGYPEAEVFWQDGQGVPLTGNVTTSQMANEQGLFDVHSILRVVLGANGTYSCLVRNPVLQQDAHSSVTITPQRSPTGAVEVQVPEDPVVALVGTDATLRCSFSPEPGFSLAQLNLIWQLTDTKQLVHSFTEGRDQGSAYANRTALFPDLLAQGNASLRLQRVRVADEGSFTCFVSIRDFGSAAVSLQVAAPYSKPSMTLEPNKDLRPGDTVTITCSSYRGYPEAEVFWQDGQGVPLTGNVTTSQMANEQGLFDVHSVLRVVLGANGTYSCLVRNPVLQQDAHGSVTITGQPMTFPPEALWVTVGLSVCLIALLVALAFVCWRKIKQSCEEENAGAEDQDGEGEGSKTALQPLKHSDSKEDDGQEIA
With B1 the “% cell associated fraction” value was over 50%.
In the case of B2, the “% cell associated fraction” value is reported as over 50%.
With B3 the “% cell associated fraction” value was over 50%.
For B4, the “% cell associated fraction” value was over 50%.
In the case of B5, the “% cell associated fraction” value is reported as over 50%.

The binders below were run against B7-H3 on Calu-6 cells (human) (UniProt Q5ZPR3) in the same assay as above.
Ac-[hLeu]YC[Tle]G[PipAla][PipAla]([PEG4′-DOTA])DVYC[Trp(5-F)][(2S,3S)βMePhe][Val(3-OH)][dE]-NH2 (disulfide 3-11 (inferred)) [Cpd 495] showed a % cell associated fraction of over 50%.
Ac-[hLeu]YC[Tle]G[Ala(piperidin-4-yl)][Ala(4-THP)]DVYC[Trp(5-F)]F[Val(3-OH)][dK](DOTA)-OH (disulfide 3-11 (inferred)) [Cpd 340] showed a % cell associated fraction of over 50%.
In the case of Ac-[hLeu]YC[Tle]G[PipAla][PipAla]([PEG4′-DOTA])DVYC[Trp(5-F)]F[hydroxyVal][dA]-OH (disulfide 3-11 (inferred)) [Cpd 455], the % cell associated fraction is reported as over 50%.
For Ac-[hLeu]YC[Tle]G[PipAla](CH2CO2H)[Ala(4-THP)]DVYC[Trp(5-F)]F[Val(3-OH)][dK](DOTA)-OH (disulfide 3-11 (inferred)) [Cpd 339], the % cell associated fraction was over 50%.
With Ac-[hLeu]YC[Tle]G[PipAla][Ala(4-THP)]DVYC[Trp(5-F)]F[hydroxyVal][dK]([hGlu-DOTA])-OH (disulfide 3-11 (inferred)) [Cpd 464] the % cell associated fraction was over 50%.
Ac-[hLeu]YC[Tle]G[PipAla](CH2COOH)[Ala(4-THP)]DVYC[Trp(5-F)][(2S,3S)βMePhe][Val(3-OH)][dK](DOTA)-OH (disulfide 3-11 (inferred)) [Cpd 497] was tested, and the % cell associated fraction was over 50%.
In the case of Ac-[hLeu]YC[Tle]G[Pip(PEG4-DOTA)Ala][Ala(4-THP)]DVYC[Trp(5-F)]F[Val(3-OH)][dS]-NH2 (disulfide 3-11 (inferred)) [Cpd 407], the % cell associated fraction is reported as over 50%.
In the case of B6, the % cell associated fraction is reported as over 50%.
Work on Ac-[hLeu]YC[Tle]GK[Pip(PEG4-DOTA)Ala]DVYC[Trp(5-F)]F[Val(3-OH)][dA]-NH2 (disulfide 3-11 (inferred)) [Cpd 385] yielded a % cell associated fraction of over 50%.
Ac-[hLeu]YCVG[Ala(piperidin-4-yl)][Cha]DVYC[Trp(5-F)]F[Val(3-OH)][dK](DOTA)-NH2 (disulfide 3-11 (inferred)) [Cpd 227] was tested, and the % cell associated fraction was over 50%.
Work on Ac-[hLeu]YC[Tle]G[PipAla](CH2COOH)[Ala(4-THP)]DV[Phe(4-NHCONH2)]C[Trp(5-F)][(2S,3S)βMePhe][Val(3-OH)][dK](DOTA)-OH (disulfide 3-11 (inferred)) [Cpd 499] yielded a % cell associated fraction of over 50%.
Ac-[hLeu]YC[Tle]GK[Pip(PEG4-DOTA)Ala]DVYC[Trp(5-F)]F[Val(3-OH)][dS]-NH2 (disulfide 3-11 (inferred)) [Cpd 408] gave a % cell associated fraction of over 50%.
For Ac-[hLeu]YC[Tle]G[PipAla][Ala(4-THP)]DVYC[Trp(5-F)][(2S,3S)βMePhe][Val(3-OH)][dK]([dE-DOTA])-OH (disulfide 3-11 (inferred)) [Cpd 501], the % cell associated fraction was over 50%.
B7 gave a % cell associated fraction of over 50%.

The binders below were run against B7-H3 on Calu-6 cells (human) (UniProt Q5ZPR3) (assay: 177Lu-labelled peptide on Calu-6 cells, % cell associated fraction; B = 25<%<=50).
With Ac-[hLeu]YC[Tle]GK[Pip(PEG4-DOTA)Ala]DVYC[Trp(5-F)]F[Val(3-OH)][dE]-NH2 (disulfide 3-11 (inferred)) [Cpd 410] the % cell associated fraction was 25 to 50%.
For Ac-[hLeu]YC[Tle]G[Pip(PEG4-DOTA)Ala][Ala(4-THP)]DVYC[Trp(5-F)]F[Val(3-OH)][dA]-NH2 (disulfide 3-11 (inferred)) [Cpd 384], the % cell associated fraction was 25 to 50%.
Ac-[hLeu]YC[Tle]G[PipAla](CH2COOH)[PipAla]([PEG4′-DOTA])DVYC[Trp(5-F)][(2S,3S)βMePhe][Val(3-OH)][dE]-NH2 (disulfide 3-11 (inferred)) [Cpd 496] showed a % cell associated fraction of 25 to 50%.
